Measured values from US7728193B2, “Phytochrome-interacting protein and a use thereof” (Genomine Inc., priority 2004, dated 2010).

Biological target: T1, Arabidopsis thaliana phytochrome A (Arabidopsis thaliana, UniProt P14712)
T1 construct: expressed in transfected cells; host or cells: EGY48 yeast strain with pSH18-34 reporter
T1 sequence (P14712 1-1122): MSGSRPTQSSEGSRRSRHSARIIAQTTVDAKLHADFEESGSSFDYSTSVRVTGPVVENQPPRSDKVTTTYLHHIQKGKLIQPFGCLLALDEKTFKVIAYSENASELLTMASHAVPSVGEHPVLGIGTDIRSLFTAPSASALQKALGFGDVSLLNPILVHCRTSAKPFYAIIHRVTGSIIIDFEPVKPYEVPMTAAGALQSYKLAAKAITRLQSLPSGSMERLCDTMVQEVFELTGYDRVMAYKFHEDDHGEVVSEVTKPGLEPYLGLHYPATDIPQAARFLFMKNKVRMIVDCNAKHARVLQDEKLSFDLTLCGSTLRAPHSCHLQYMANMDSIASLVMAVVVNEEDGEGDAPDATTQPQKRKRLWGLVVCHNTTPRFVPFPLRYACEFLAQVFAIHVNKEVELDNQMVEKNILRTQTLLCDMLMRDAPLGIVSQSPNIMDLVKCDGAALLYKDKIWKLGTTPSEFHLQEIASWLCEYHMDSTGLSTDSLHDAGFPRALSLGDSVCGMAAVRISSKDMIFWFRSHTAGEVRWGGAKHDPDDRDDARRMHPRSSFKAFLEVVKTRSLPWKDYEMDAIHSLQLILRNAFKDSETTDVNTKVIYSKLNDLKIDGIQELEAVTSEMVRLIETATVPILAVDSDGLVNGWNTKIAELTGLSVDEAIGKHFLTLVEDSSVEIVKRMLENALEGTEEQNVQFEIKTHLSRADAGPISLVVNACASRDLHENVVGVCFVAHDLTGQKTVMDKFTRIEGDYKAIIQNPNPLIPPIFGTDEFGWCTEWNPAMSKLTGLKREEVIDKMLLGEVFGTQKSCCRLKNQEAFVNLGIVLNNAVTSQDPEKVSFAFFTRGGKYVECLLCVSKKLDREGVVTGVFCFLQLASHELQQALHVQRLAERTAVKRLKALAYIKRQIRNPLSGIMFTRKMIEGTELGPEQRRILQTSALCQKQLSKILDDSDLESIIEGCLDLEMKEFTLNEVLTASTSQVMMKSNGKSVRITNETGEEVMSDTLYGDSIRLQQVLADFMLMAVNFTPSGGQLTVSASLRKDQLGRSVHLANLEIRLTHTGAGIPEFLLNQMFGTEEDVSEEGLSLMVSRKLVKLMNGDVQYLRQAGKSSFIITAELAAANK
Test: Yeast two-hybrid analysis of specificity of interaction
Assay type: cell-based
Conditions: EGY48 yeast, Leu-drop out and X-gal media
Excerpt: A pGilda vector and a pJG4-5 vector (OriGene Technologies) were used to prepare a prey and a bait, […] (see FIG. 4). In this case, as control groups to examine specific binding, hepatitis C virus (HCV) protein NS5A(N) (distributed from professor S K Jang, Department of Life Science, Pohang University of Science and Technology, Korea) and another plant protein SPINDLY(SPY) having the TPR domain (Jacobsen, S. E., et al., Proc. Natl. Acad. Sci. U.S.A. 93:9292-9296, 1996) were used. Furthermore, the prey and the bait were interchanged to observe protein-protein binding by a reciprocal method. The prepared prey and bait together with a pSH18-34 reporter plasmid (OriGene Technologies) were co-introduced into an EGY48 yeast strain (OriGene Technologies). Next, the transformants were selected on a media containing X-gal (5-bromo-4-chloro-3-indolyl-β-D-galactopyranoside; Rose Scientific Ltd.). Plate-growth assays were performed on Leu-drop out media and X-gal media.

PAPP5: type 5 serine/threonine protein phosphatase of Arabidopsis thaliana interacting with phytochromes, SEQ ID NO: 4
interaction with phytochrome A in yeast two-hybrid: interacted specifically
